Numbered stars: 1 amine (or outer) side, 2 acyl side, 3 side chain; on linkers, the order of the positions; unused ones are H or OH. Bridge positions count the residues as written; N and C are the ends. Square brackets hold non-standard residues; d marks the D form. Side chains are listed from the residue outwards. Ends that are not written are not given here. * marks the point of attachment. C20 diacid = O=C(O)CCCCCCCCCCCCCCCCCCC(=O)*; C16 diacid = O=C(O)CCCCCCCCCCCCCCC(=O)*; γGlu = O=C(O)[C@H](CCC(=O)[*:2])N[*:1]
T1: human amylin 3(a) receptor (human calcitonin receptor + RAMP-3) (human, UniProt P30988 25-474; O60896 24-148, limits assumed)
T1 sequence (looked up) 1: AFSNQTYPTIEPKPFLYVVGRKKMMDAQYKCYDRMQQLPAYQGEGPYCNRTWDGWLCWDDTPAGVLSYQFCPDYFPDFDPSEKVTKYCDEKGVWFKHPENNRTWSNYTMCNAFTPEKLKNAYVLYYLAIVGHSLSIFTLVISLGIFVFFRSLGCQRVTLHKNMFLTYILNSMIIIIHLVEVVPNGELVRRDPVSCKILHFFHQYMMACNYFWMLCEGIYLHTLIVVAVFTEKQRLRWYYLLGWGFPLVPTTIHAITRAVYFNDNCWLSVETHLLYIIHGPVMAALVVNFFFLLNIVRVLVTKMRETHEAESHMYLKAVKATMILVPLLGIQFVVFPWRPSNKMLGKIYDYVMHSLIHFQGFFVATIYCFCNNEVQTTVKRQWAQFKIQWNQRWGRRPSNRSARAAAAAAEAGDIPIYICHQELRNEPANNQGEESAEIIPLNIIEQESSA
T1 sequence (looked up) 2: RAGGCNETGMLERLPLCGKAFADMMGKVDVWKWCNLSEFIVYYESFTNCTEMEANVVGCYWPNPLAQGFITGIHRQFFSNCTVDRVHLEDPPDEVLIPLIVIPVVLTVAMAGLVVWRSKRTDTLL

T2: human calcitonin receptor (human, UniProt P30988 25-474)
T2 sequence (looked up): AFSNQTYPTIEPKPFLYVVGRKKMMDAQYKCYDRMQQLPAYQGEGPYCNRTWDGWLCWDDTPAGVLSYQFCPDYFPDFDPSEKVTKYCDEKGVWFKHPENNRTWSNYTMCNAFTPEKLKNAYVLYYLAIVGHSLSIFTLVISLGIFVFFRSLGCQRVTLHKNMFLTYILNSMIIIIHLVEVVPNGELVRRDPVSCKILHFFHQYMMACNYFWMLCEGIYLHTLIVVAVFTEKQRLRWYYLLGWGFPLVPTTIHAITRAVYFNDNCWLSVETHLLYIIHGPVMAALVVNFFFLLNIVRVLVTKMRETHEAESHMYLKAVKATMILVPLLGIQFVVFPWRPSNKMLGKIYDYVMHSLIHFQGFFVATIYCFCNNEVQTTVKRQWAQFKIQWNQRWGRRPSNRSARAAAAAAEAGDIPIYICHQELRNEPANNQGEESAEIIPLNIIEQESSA

T3: human calcitonin receptor (human, UniProt P30988 25-474)
T3 sequence (looked up): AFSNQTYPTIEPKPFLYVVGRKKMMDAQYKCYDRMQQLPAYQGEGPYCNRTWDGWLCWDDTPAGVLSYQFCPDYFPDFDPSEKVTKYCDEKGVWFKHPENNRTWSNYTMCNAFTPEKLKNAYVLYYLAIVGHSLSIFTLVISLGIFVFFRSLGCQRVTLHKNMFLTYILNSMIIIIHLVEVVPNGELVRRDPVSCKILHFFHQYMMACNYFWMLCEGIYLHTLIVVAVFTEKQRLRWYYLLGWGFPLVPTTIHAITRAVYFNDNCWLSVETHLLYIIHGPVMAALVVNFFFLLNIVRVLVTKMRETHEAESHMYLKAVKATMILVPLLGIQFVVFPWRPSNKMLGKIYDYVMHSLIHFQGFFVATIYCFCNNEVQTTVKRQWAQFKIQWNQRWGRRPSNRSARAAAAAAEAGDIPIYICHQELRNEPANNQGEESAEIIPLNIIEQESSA


These binders were tested against T1, human amylin 3(a) receptor (human …) (assay: cell-based or functional assay).

| hAmylin-R funct. EC50 (pM) | Binder |
| --- | --- |
| 109 | {C20 diacid-γGlu}-GRCNTATCATQRLAAFLRHSSPNFGAIPSSTNVGHNTY-NH2 (disulfide 3-8; SMILES CC[C@H](C)[C@H](NC(=O)[C@H](C)NC(=O)CNC(=O)[C@H](Cc1ccccc1)NC(=O)[C@H](CC(N)=O)NC(=O)[C@@H]1CCCN1C(=O)[C@H](CO)NC(=O)[C@H](CO)NC(=O)[C@H](Cc1c[nH]cn1)NC(=O)[C@H](CCCNC(=N)N)NC(=O)[C@H](CC(C)C)NC(=O)[C@H](Cc1ccccc1)NC(=O)[C@H](C)NC(=O)[C@H](C)NC(=O)[C@H](CC(C)C)NC(=O)[C@H](CCCNC(=N)N)NC(=O)[C@H](CCC(N)=O)NC(=O)[C@@H](NC(=O)[C@H](C)NC(=O)[C@@H]1CSSC[C@H](NC(=O)[C@H](CCCNC(=N)N)NC(=O)CNC(=O)CC[C@H](NC(=O)CCCCCCCCCCCCCCCCCCC(=O)O)C(=O)O)C(=O)N[C@@H](CC(N)=O)C(=O)N[C@@H]([C@@H](C)O)C(=O)N[C@@H](C)C(=O)N[C@@H]([C@@H](C)O)C(=O)N1)[C@@H](C)O)C(=O)N1CCC[C@H]1C(=O)N[C@@H](CO)C(=O)N[C@@H](CO)C(=O)N[C@H](C(=O)N[C@@H](CC(N)=O)C(=O)N[C@H](C(=O)NCC(=O)N[C@@H](Cc1c[nH]cn1)C(=O)N[C@@H](CC(N)=O)C(=O)N[C@H](C(=O)N[C@@H](Cc1ccc(O)cc1)C(N)=O)[C@@H](C)O)C(C)C)[C@@H](C)O) |
| 62 | {C20 diacid-γGlu}-GRCNTATCATQRLAHFLRHSSPNFGAIPSSTNVGPNTY-NH2 (disulfide 3-8; SMILES CC[C@H](C)[C@H](NC(=O)[C@H](C)NC(=O)CNC(=O)[C@H](Cc1ccccc1)NC(=O)[C@H](CC(N)=O)NC(=O)[C@@H]1CCCN1C(=O)[C@H](CO)NC(=O)[C@H](CO)NC(=O)[C@H](Cc1c[nH]cn1)NC(=O)[C@H](CCCNC(=N)N)NC(=O)[C@H](CC(C)C)NC(=O)[C@H](Cc1ccccc1)NC(=O)[C@H](Cc1c[nH]cn1)NC(=O)[C@H](C)NC(=O)[C@H](CC(C)C)NC(=O)[C@H](CCCNC(=N)N)NC(=O)[C@H](CCC(N)=O)NC(=O)[C@@H](NC(=O)[C@H](C)NC(=O)[C@@H]1CSSC[C@H](NC(=O)[C@H](CCCNC(=N)N)NC(=O)CNC(=O)CC[C@H](NC(=O)CCCCCCCCCCCCCCCCCCC(=O)O)C(=O)O)C(=O)N[C@@H](CC(N)=O)C(=O)N[C@@H]([C@@H](C)O)C(=O)N[C@@H](C)C(=O)N[C@@H]([C@@H](C)O)C(=O)N1)[C@@H](C)O)C(=O)N1CCC[C@H]1C(=O)N[C@@H](CO)C(=O)N[C@@H](CO)C(=O)N[C@H](C(=O)N[C@@H](CC(N)=O)C(=O)N[C@H](C(=O)NCC(=O)N1CCC[C@H]1C(=O)N[C@@H](CC(N)=O)C(=O)N[C@H](C(=O)N[C@@H](Cc1ccc(O)cc1)C(N)=O)[C@@H](C)O)C(C)C)[C@@H](C)O) |

What follows are binders tested against T2, human calcitonin receptor (assay: cell-based or functional assay).

| Ratio hCT/hAmylin funct. | Binder |
| --- | --- |
| 4.9 | {C20 diacid-γGlu}-GRCNTATCATQRLAAFLRHSSPNFGAIPSSTNVGHNTY-NH2 (disulfide 3-8; SMILES CC[C@H](C)[C@H](NC(=O)[C@H](C)NC(=O)CNC(=O)[C@H](Cc1ccccc1)NC(=O)[C@H](CC(N)=O)NC(=O)[C@@H]1CCCN1C(=O)[C@H](CO)NC(=O)[C@H](CO)NC(=O)[C@H](Cc1c[nH]cn1)NC(=O)[C@H](CCCNC(=N)N)NC(=O)[C@H](CC(C)C)NC(=O)[C@H](Cc1ccccc1)NC(=O)[C@H](C)NC(=O)[C@H](C)NC(=O)[C@H](CC(C)C)NC(=O)[C@H](CCCNC(=N)N)NC(=O)[C@H](CCC(N)=O)NC(=O)[C@@H](NC(=O)[C@H](C)NC(=O)[C@@H]1CSSC[C@H](NC(=O)[C@H](CCCNC(=N)N)NC(=O)CNC(=O)CC[C@H](NC(=O)CCCCCCCCCCCCCCCCCCC(=O)O)C(=O)O)C(=O)N[C@@H](CC(N)=O)C(=O)N[C@@H]([C@@H](C)O)C(=O)N[C@@H](C)C(=O)N[C@@H]([C@@H](C)O)C(=O)N1)[C@@H](C)O)C(=O)N1CCC[C@H]1C(=O)N[C@@H](CO)C(=O)N[C@@H](CO)C(=O)N[C@H](C(=O)N[C@@H](CC(N)=O)C(=O)N[C@H](C(=O)NCC(=O)N[C@@H](Cc1c[nH]cn1)C(=O)N[C@@H](CC(N)=O)C(=O)N[C@H](C(=O)N[C@@H](Cc1ccc(O)cc1)C(N)=O)[C@@H](C)O)C(C)C)[C@@H](C)O) |
| 2.9 | {C20 diacid-γGlu}-GRCNTATCATQRLAHFLRHSSPNFGAIPSSTNVGPNTY-NH2 (disulfide 3-8; SMILES CC[C@H](C)[C@H](NC(=O)[C@H](C)NC(=O)CNC(=O)[C@H](Cc1ccccc1)NC(=O)[C@H](CC(N)=O)NC(=O)[C@@H]1CCCN1C(=O)[C@H](CO)NC(=O)[C@H](CO)NC(=O)[C@H](Cc1c[nH]cn1)NC(=O)[C@H](CCCNC(=N)N)NC(=O)[C@H](CC(C)C)NC(=O)[C@H](Cc1ccccc1)NC(=O)[C@H](Cc1c[nH]cn1)NC(=O)[C@H](C)NC(=O)[C@H](CC(C)C)NC(=O)[C@H](CCCNC(=N)N)NC(=O)[C@H](CCC(N)=O)NC(=O)[C@@H](NC(=O)[C@H](C)NC(=O)[C@@H]1CSSC[C@H](NC(=O)[C@H](CCCNC(=N)N)NC(=O)CNC(=O)CC[C@H](NC(=O)CCCCCCCCCCCCCCCCCCC(=O)O)C(=O)O)C(=O)N[C@@H](CC(N)=O)C(=O)N[C@@H]([C@@H](C)O)C(=O)N[C@@H](C)C(=O)N[C@@H]([C@@H](C)O)C(=O)N1)[C@@H](C)O)C(=O)N1CCC[C@H]1C(=O)N[C@@H](CO)C(=O)N[C@@H](CO)C(=O)N[C@H](C(=O)N[C@@H](CC(N)=O)C(=O)N[C@H](C(=O)NCC(=O)N1CCC[C@H]1C(=O)N[C@@H](CC(N)=O)C(=O)N[C@H](C(=O)N[C@@H](Cc1ccc(O)cc1)C(N)=O)[C@@H](C)O)C(C)C)[C@@H](C)O) |

The binders below were run against T3, human calcitonin receptor (assay: cell-based or functional assay).

| Binder | hCTR funct. EC50 (pM) |
| --- | --- |
| K([γGlu-γGlu-C20 diacid])CNTATCATQRLAEFLRHSSPNFGAIPSSTNVGPETY-NH2 (disulfide 2-7 (inferred), Synthetic) | 2360 |
| K([γGlu-C20 diacid])CNTATCATQRLAEFLRHSSPNFGAIPSSTNVGHETY-NH2 (disulfide 2-7 (inferred), Synthetic; also called compound 107) | 2540 |
| K([γGlu-C20 diacid])CNTATCATQRLAEFLRHSSPNFGAIPSSTNVGSHTY-NH2 (disulfide 2-7 (inferred), Synthetic) | 5580 |
| K([γGlu-γGlu-C20 diacid])CNTATCATQRLANFLRHSSPNFGAIPSSTPVGPRTY-NH2 (disulfide 2-7 (inferred), Synthetic) | 8660 |
| K([γGlu-C16 diacid])CNTATCATQRLANFLRHSSPNFGAIPSSTNVGHNTY-NH2 (disulfide 2-7 (inferred), Synthetic) [N^ε1-[(4S)-4-carboxy-4-(15-carboxypentadecanoylamino)butanoyl]-[Arg17,Pro21,Pro27,His34]-h-amylin] | 2210 |

Now from value to binder:

| hCTR funct. EC50 (pM) | Binder |
| --- | --- |
| 2140 | K([γGlu-γGlu-C20 diacid])CNTATCATQRLAEFLRHSSPNFGAIPSSTNVGPNTF-NH2 (disulfide 2-7 (inferred), Synthetic) |
| 7050 | K([γGlu-γGlu-C20 diacid])CNTATCATQRLAEFLRHSSPNFGAIPSSTNVGHETY-NH2 (disulfide 2-7 (inferred), Synthetic) |
| 100000 | K([γGlu-γGlu-C20 diacid])CNTATCATQRLA[dD]FLRHSSPNFGAIPSSTNVGSRTY-NH2 (disulfide 2-7 (inferred), Synthetic) |
| 2830 | K([γGlu-γGlu-C20 diacid])CNTATCATQRLAEFLRHSSPNFGAIPSSTNVGPHTY-NH2 (disulfide 2-7 (inferred), Synthetic) |

Reference: patent US20140087995A1 (published 2014)
